Sequences and labels used below:
T1: integrin β3(P685-F727) transmembrane peptide with C687S and I693A (human, UniProt P05106 711-753, C687S | I693A)
T1 chain (looked up): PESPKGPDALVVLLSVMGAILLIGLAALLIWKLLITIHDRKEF

T2: integrin β3(P685-F727) transmembrane peptide with C687S (human, UniProt P05106 711-753, C687S)
T2 chain (looked up): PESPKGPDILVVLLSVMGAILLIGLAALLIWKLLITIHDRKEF

B1: integrin αIIb(A958-P998) transmembrane peptide (peptide)
chain: not shown
B2: integrin αIIb(A958-P998) transmembrane peptide with G972S (peptide)
chain: not shown
B3: integrin αIIb(A958-P998) transmembrane peptide with G972A (peptide)
chain: not shown

Here are results for eight molecules from article PMC11025565 (Journal of molecular biology, 2021).

The first test has as its target T1, integrin β3(P685-F727) transmembrane …. The experiment in a line: ITC. For orientation: In ITC the heat of successive injections is recorded.
As to B1, the KXY worked out at 9500 ± 500 and the dH was -13.9 ± 0.3 kcal/mol.
ALEERAIPIWVVLVGVLGGLLLLTILVLAMWKVGFFKRNRP (peptide, UniProt P08514 989-1029, looked up) [integrin αIIb(A958-P998) transmembrane peptide with W968V] displayed a KXY of 18600 ± 800 and a dH of -16 ± 0.2 kcal/mol.

A further test has as its target T2, integrin β3(P685-F727) transmembrane …. The experiment in a line: ITC.
Turning to ALEERAIPIWVVLVGVLGGLLLLTILVLAMWKVGFFKRNRP (peptide, UniProt P08514 989-1029, looked up) [integrin αIIb(A958-P998) transmembrane peptide with W968V], the KXY worked out at 13200 ± 600 and the dH is -14.3 ± 0.2 kcal/mol.
With ALEERAIPIWVVLVAVLGGLLLLTILVLAMWKVGFFKRNRP (peptide, UniProt P08514 989-1029, looked up) [integrin αIIb(A958-P998) transmembrane peptide with W968V/G972A], the KXY was 1570 ± 50 and the dH is -14.4 ± 0.2 kcal/mol.
For the molecule ALEERAIAIWVVLVGVLGGLLLLTILVLAMWKVGFFKRNRP (peptide, UniProt P08514 989-1029, looked up) [integrin αIIb(A958-P998) transmembrane peptide with P965A/W968V], the KXY was determined as 9700 ± 300 and the dH is -14.6 ± 0.1 kcal/mol.
As for ALEERAIPIWAVLVGVLGGLLLLTILVLAMWKVGFFKRNRP (peptide, UniProt P08514 989-1029, looked up) [integrin αIIb(A958-P998) transmembrane peptide with W968A], the KXY is 14000 ± 1000 and the dH is -14.1 ± 0.3 kcal/mol.
With B2, the KXY came out at 810 ± 20 and the dH is -14.8 ± 0.2 kcal/mol.
Molecule B3 gave a KXY of 1080 ± 30 and a dH of -14.2 ± 0.2 kcal/mol.
With ALEERAIPIWVVLVSVLGGLLLLTILVLAMWKVGFFKRNRP (peptide, UniProt P08514 989-1029, looked up) [integrin αIIb(A958-P998) transmembrane peptide with W968V/G972S], the KXY came out at 1300 ± 50 and the dH is -12.5 ± 0.3 kcal/mol.
